The values below come from publication PMC6270235, “A Macrocyclic Peptide that Serves as a Cocrystallization Ligand and Inhibits the Function of a MATE Family Transporter” (Molecules, 2013).

In this experiment the target is T1, Pyrococcus furiosus multidrug and toxic compound extrusion (PfMATE) transporter, wild type, His6-tagged, … (Pyrococcus furiosus, UniProt Q8U2X0 1-461).
T1 construct: PfMATE, MATE family transporter of Pyrococcus furiosus, wild type; Held in HEPES-buffered saline with 0.1% Cymal-6; also called His-tagged PfMATE; source: prepared according to literature [29]; not shown: His6, C-terminal, kept
T1 sequence (looked up): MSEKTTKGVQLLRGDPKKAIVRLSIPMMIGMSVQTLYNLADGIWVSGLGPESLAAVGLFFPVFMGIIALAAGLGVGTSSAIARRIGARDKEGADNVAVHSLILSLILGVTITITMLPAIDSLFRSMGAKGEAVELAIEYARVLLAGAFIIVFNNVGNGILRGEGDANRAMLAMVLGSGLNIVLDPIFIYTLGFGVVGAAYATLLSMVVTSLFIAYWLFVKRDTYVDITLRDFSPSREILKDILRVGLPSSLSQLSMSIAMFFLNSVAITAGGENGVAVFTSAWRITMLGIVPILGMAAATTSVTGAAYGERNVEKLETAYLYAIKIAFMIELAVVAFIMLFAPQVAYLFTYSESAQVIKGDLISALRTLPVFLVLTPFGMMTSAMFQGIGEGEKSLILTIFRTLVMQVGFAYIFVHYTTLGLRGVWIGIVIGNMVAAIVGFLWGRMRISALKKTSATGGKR
Briefly: mRNA display selection round with competitor; c-Round 6: 32 µM mRNA-free synthetic MaL6 in the buffer of the binding step, 37 °C, His6-PfMATE on magnetic beads, libraries from Round 5; recovery by real-time PCR. Particulars: both partners purified. For orientation: Quantitative PCR measures a nucleic acid by following its amplification.

Bridge positions count the residues as written; N and C are the ends.

B1: MaL6, chemically synthesized thioether-macrocyclic peptide, not conjugated to mRNA, with an additional C-terminal glycine-carboxamide (peptide)
peptide: {CH2CO}-FTFRYSPSLYTWFLFPCG-NH2
modifications: thioether N-17 (inferred)
notes: AcF = N-chloroacetyl-L-phenylalanine; selected from the LF-library by RaPID; additional C-terminal glycine-carboxamide; also called chemically synthesized MaL6; mRNA-free MaL6; source: synthetic peptide, HPLC purified
Turning to B1, the binding result is “binds”.
